Assay results: patent publication US20090291081A1 (AbbVie / Abbott, published 2009)
Several values for one entry are separate records, joined by “and”; a condition that tells them apart may be missing. Equal entries are not always repeated.

What was measured:
[1] = biological target: T1, human IL-1α (human, UniProt P01583 113-271); assay: cell-based or functional assay
T1 sequence (looked up): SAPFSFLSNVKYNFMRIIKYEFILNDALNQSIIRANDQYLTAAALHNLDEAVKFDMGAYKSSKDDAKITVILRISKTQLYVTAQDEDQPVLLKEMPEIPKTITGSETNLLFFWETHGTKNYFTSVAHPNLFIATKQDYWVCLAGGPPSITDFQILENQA

[2] = biological target: human IL-1β (human, UniProt P01584 117-269); assay: cell-based or functional assay

Binder | IL-1α IC50 [1] | IL-1β IC50 [2]
ABT2-65-17/ABT1-141 hu IgG1/K wt (bispecific antibody, V domains shown) VH: EVQLLESGGGLVQPGGSLRLSCVASGFTFEDYQMGWVRQAPGKGLEWVSSISAMGNRTYYADSVKGRFTISRDDSKNTLYLQMNSLRAEDTAVYYCAQNLVRLGRSRWMFDYWGQGTLVTVSS VL: DIQMTQSPSSLSASVGDRVTITCRASQWIQKQLAWYQQKPGKAPKLLIYSSSYLQSGVPRFSGSGSGTDFTLTISSLQPEDFATYYCQQHLRVPFTFGQGTKVEIKR | 70 nM | 0.4 nM
ABT2-65-8/ABT1-122 hu IgG1/K wt (bispecific antibody, V domains shown) VH: EVQLLESGGGLVQPGGSLRLSCAASGFTFEDYQMGWVRQAPGKGLEWVSSISAMGNRTYYADSVKGRFTISRDDSKNTLYLQMNSLRAEDTAVYYCAQNLVRMDSRRWMFDYWGQGTLVTVSS VL: DIQMTQSPSSLSASVGDRVTITCRASQPIWTELNWYQQKPGKAPKLLIYGSSSLQSGVPRFSGSGSGTDFTLTISSLQPEDFATYYCQQFAYFPATFGQGTKVEIKR | 1000 nM | 2.7 nM
ABT2-65-8/ABT1-212 hu IgG1/K wt (bispecific antibody, V domains shown) VH: EVQLLESGGGLVQPGGSLRLSCAASGFTFEDYQMGWVRQAPGKGLEWVSSISAMGNRTYYADSVKGRFTISRDDSKNTLYLQMNSLRAEDTAVYYCAQNLVRMDSRRWMFDYWGQGTLVTVSS VL: DIQMTQSPSSLSASVGDRVTITCRASQRINGNLRWYQQKPGKAPKLLIYSVSQLQSGVPSRFSGSGSGTDFTLTISSLQPEDFATYYCQQGYDWPPTFGQGTKVETKR | 5000 nM | 3.5 nM
ABT2-65/ABT1-122 hu IgG1/K wt (bispecific antibody, V domains shown) VH: EVQLLESGGGLVQPGGSLRLSCAASGFTFEDYQMGWVRQAPGKGLEWVSSISAMGNRTYYADSVKGRFTISRDDSKNTLYLQMNSLRAEDTAVYYCAKNLVRTQSKMWMFDYWGQGTLVTVSS VL: DIQMTQSPSSLSASVGDRVTITCRASQPIWTELNWYQQKPGKAPKLLIYGSSSLQSGVPRFSGSGSGTDFTLTISSLQPEDFATYYCQQFAYFPATFGQGTKVEIKR | 2000 nM | 2000 nM
ABT2-65-201/ABT1-95-15 hu IgG1/K mut (234; 235) (bispecific antibody, V domains shown) VH: EVQLLESGGGLVQPGGSLRLSCVASGFTFEDYQMGWVRQAPGKGLEWVSSISAMGRRTYYADSVKGRFTISRDNSKNTLYLQMNSLRAEDTAVYYCAQNLVRLGRSRWMFDYWGQGTLVTVSS VL: DIQMTQSPSSLSASVGDRVTITCRASQPIVRNLRWYQQKPGKAPKLLIYSSSYLEPGVPSRFSGSGSGTDFTLTISSLQPEDFATYHCQQGYRWPVTFGQGTKVEIKR | 0.652 nM | 0.03 nM
ABT2-65-166/ABT1-95-15 hu IgG1/K wt (bispecific antibody, V domains shown) VH: EVQLLESGGGLVQPGGSLRLSCAASGFTFEDYQMGWVRQAPGKGLEWVSSISAMGGRTYYADSVKGRFTISRDNSKNTLYLQMNSLRAEDTAVYYCAQNLVRLGRSRWMFDYWGQGTLVTVSS VL: DIQMTQSPSSLSASVGDRVTITCRASQPIVRNLRWYQQKPGKAPKLLIYSSSYLEPGVPSRFSGSGSGTDFTLTISSLQPEDFATYHCQQGYRWPVTFGQGTKVEIKR | 1.89 nM | 0.13 nM
ABT2-65-166/ABT1-95-184 hu IgG1mut 234, 235/K (bispecific antibody, V domains shown) VH: EVQLLESGGGLVQPGGSLRLSCAASGFTFEDYQMGWVRQAPGKGLEWVSSISAMGGRTYYADSVKGRFTISRDNSKNTLYLQMNSLRAEDTAVYYCAQNLVRLGRSRWMFDYWGQGTLVTVSS VL: DIQMTQSPSSLSASVGDRVTITCRASRTPVRNLRWYQQKPGKAPKLLIYSRSYLEPGVPSRFSGSGSGTDFTLTISSLQPEDFATYHCLQGYRWPPTFGQGTKVEIKR | 0.068 nM | 0.15 nM
ABT2-65-8/ABT1-141 hu IgG1/K wt (bispecific antibody, V domains shown) VH: EVQLLESGGGLVQPGGSLRLSCAASGFTFEDYQMGWVRQAPGKGLEWVSSISAMGNRTYYADSVKGRFTISRDDSKNTLYLQMNSLRAEDTAVYYCAQNLVRMDSRRWMFDYWGQGTLVTVSS VL: DIQMTQSPSSLSASVGDRVTITCRASQWIQKQLAWYQQKPGKAPKLLIYSSSYLQSGVPRFSGSGSGTDFTLTISSLQPEDFATYYCQQHLRVPFTFGQGTKVEIKR | 450 nM | 0.09 nM
ABT2-108-521/ABT1-141-25 hu IgG1/K wt (bispecific antibody, V domains shown) VH: EVQLLESGGGLVQPGGSLRLSCAASGFTFAEYTMMWVRQAPGKGLEWVSRIGQDGKNTYYADSVKGRFTISRDNSKNTLYLQMNSLRAEDTAVYYCAKYTGRILGHHLFDYWGQGTLVTVSS VL: DIQMTQSPSSLSASVGDRVTITCRASQWIQKQLAWYQQKPGKAPKLLIYSSSYLQSGVPSRFSGSGSGTDFTLTISSLQPEDFATYYCQQHLRVPMTFGQGTKVEIKR | 20 nM | 0.1 nM
ABT2-108-538x/ABT1-221 huIgG1/K wt (bispecific antibody, V domains shown) VH: EVQLLESGGGLVQPGGSLRLSCAASGFTFADEGMMWVRQAPGKGLEWVSRITYSGKNTYYADSVKGRFTISRDNSKNTLYLQMNSLRAEDTAVYYCAKYTGRILGHHLFDYWGQGTLVTVSS VL: DIQMTQSPSSLSASVGDRVTITCRASQDIWPYLMWYQQKPGKAPKLLIYYSSMLQSGVPSRFSGSGSGTDFTLTISSLQPEDFATYYCQQFRRWPYTFGQGTKVEIKR | 200 nM | 0.01 nM
ABT2-108-534x/ABT1-122 hu IgG1/K wt (bispecific antibody, V domains shown) VH: EVQLLESGGGLVQPGGSLRLSCAASGFTFADEGMMWVRQAPGKGLEWVSRITYSGKNTYYADSVKGRFTISRDNSKNTLYLQMNSLRAEDTAVYYCAKYTGRIFSHHLFDYWGQGTLVTVSS VL: DIQMTQSPSSLSASVGDRVTITCRASQPIWTELNWYQQKPGKAPKLLIYGSSSLQSGVPRFSGSGSGTDFTLTISSLQPEDFATYYCQQFAYFPATFGQGTKVEIKR | 1000 nM | 0.025 nM and 0.035 nM
ABT2-108-504/ABT1-122 hu IgG1/K wt (bispecific antibody, V domains shown) VH: EVQLLESGGGLVQPGGSLRLSCAASGFTFADEGMMWVRQAPGKGLEWVSRIGQDGKNTYYADSVKGRFTISRDNSKNTLYLQMNSLRAEDTAVYYCAKYTGRVGVHHLFDYWGQGTLVTVSS VL: DIQMTQSPSSLSASVGDRVTITCRASQPIWTELNWYQQKPGKAPKLLIYGSSSLQSGVPRFSGSGSGTDFTLTISSLQPEDFATYYCQQFAYFPATFGQGTKVEIKR | 1500 nM | 15 nM
ABT2-108-537x/ABT1-122 hu IgG1/K wt (bispecific antibody, V domains shown) VH: EVQLLESGGGLVQPGGSLRLSCAASGFTFADEGMMWVRQAPGKGLEWVSRIGQDGKNTYYRMDVKGRFTISRDNSKNTLYLQMNSLRAEDTAVYYCAKYTGRILGHHLFDYWGQGTLVTVSS VL: DIQMTQSPSSLSASVGDRVTITCRASQPIWTELNWYQQKPGKAPKLLIYGSSSLQSGVPRFSGSGSGTDFTLTISSLQPEDFATYYCQQFAYFPATFGQGTKVEIKR | 1000 nM | 0.007 nM and 0.02 nM
ABT2-108-603/ABT1-122 hu IgG1/K wt (bispecific antibody, V domains shown) VH: EVQLLESGGGLVQPGGSLRLSCAASGFTFAEYTMMWVRQAPGKGLEWVSRITDAGKNTYYADSVKGRFTISRDNSKNTLYLQMNSLRAEDTAVYYCAKYTGRVGVHHLFDYWGQGTLVTVSS VL: DIQMTQSPSSLSASVGDRVTITCRASQPIWTELNWYQQKPGKAPKLLIYGSSSLQSGVPRFSGSGSGTDFTLTISSLQPEDFATYYCQQFAYFPATFGQGTKVEIKR | 1500 nM | 10 nM
ABT2-108-521/ABT1-95-A3 hu IgG1 wt (bispecific antibody, V domains shown) VH: EVQLLESGGGLVQPGGSLRLSCAASGFTFAEYTMMWVRQAPGKGLEWVSRIGQDGKNTYYADSVKGRFTISRDNSKNTLYLQMNSLRAEDTAVYYCAKYTGRILGHHLFDYWGQGTLVTVSS VL: DIQMTQSPSSLSASVGDRVTITCRASKPGVRNMRWYQQKPGKAPKLLIYSVSYLEPGVPSRFSGSGSGTDFTLTISSLQPEDFATYHCLQGYRWPPTFGQGTKVEIKR | 0.027 nM | 0.098 nM
ABT2-108-617/ABT1-122 hu IgG1/K wt (bispecific antibody, V domains shown) VH: EVQLLESGGGLVQPGGSLRLSCAASGFTFAEYTMMWVRQAPGKGLEWVSRIGQDGKNTYYADSVKGRFTISRDNSKNTLYLQMNSLRAEDTAVYYCAKYTGRIFTHHLFDYWGQGTLVTVSS VL: DIQMTQSPSSLSASVGDRVTITCRASQPIWTELNWYQQKPGKAPKLLIYGSSSLQSGVPRFSGSGSGTDFTLTISSLQPEDFATYYCQQFAYFPATFGQGTKVEIKR | 150 nM | 0.05 nM
ABT2-108-518/ABT1-122 hu IgG1/K wt (bispecific antibody, V domains shown) VH: EVQLLESGGGLVQPGGSLRLSCAASGFTFAEYTMMWVRQAPGKGLEWVSRIGQDGKNTYYRMDVKGRFTISRDNSKNTLYLQMNSLRAEDTAVYYCAKYTGRVGVHHLFDYWGQGTLVTVSS VL: DIQMTQSPSSLSASVGDRVTITCRASQPIWTELNWYQQKPGKAPKLLIYGSSSLQSGVPRFSGSGSGTDFTLTISSLQPEDFATYYCQQFAYFPATFGQGTKVEIKR | 400 nM | 0.5 nM
ABT2-108-612/ABT1-122 hu IgG1/K wt (bispecific antibody, V domains shown) VH: EVQLLESGGGLVQPGGSLRLSCAASGFTFAEYTMMWVRQAPGKGLEWVSRIGQDGKNTYYADSVKGRFTISRDNSKNTLYLQMNSLRAEDTAVYYCAKYTGRIMGHHLFDYWGQGTLVTVSS VL: DIQMTQSPSSLSASVGDRVTITCRASQPIWTELNWYQQKPGKAPKLLIYGSSSLQSGVPRFSGSGSGTDFTLTISSLQPEDFATYYCQQFAYFPATFGQGTKVEIKR | 100 nM | 1 nM and 0.45 nM
ABT2-108-538x/ABT1-221 huIgG1/K wt (second row of that name; light chain column ABT1-222) (bispecific antibody, V domains shown) VH: EVQLLESGGGLVQPGGSLRLSCAASGFTFADEGMMWVRQAPGKGLEWVSRITYSGKNTYYADSVKGRFTISRDNSKNTLYLQMNSLRAEDTAVYYCAKYTGRILGHHLFDYWGQGTLVTVSS VL: DIQMTQSPSSLSASVGDRVTITCRASQPITRNLRWYQQKPGKAPKLLIYHSSVLQSGVPSRFSGSGSGTDFTLTISSLQPEDFATYYCQQGYRWPVTFGQGTKVEIKR | 200 nM | 0.01 nM
